The text below walks through data of patent US20150166662A1 (ROCKEFELLER UNIVERSITY, published 2015).

In test [1] the target is T1, recombinant sCD4 comprising the full-length extracellular domain of human CD4 (human, UniProt P01730 26-396).
T1 construct: also called human soluble CD4; human sCD4 protein
Briefly: SPR (Biacore), antibody amine-coupled on the chip, human sCD4 as analyte, 25 C, 1:1 Langmuir fit. The method, then: (§1) Binding affinity analyses were performed with a Biacore T3000 optical biosensor (GE Healthcare, Piscataway, N.J.). Immobilization of ibalizumab and all the glycan variants were performed following the standard amine coupling procedure. Briefly, carboxyl groups on the sensor chip surface were activated by injection of 35 μL of a solution containing 0.2 M N-(3-dimethylaminopropyl)-N-ethylcarbodiimide and 0.05 M Nhydroxysuccinimide at a flow rate of 5 μL/minute. Next, ibalizumab or its mutant variant, at a concentration of 2 μg/mL in 10 mM sodium-acetate buffer, pH 4.5, was allowed to flow over the chip surface at a rate of 10 μL/minute until the desired level of response units of reacted protein (150-200 RU) was achieved. After unreacted protein was washed out, excess active ester groups on the sensor surface were capped by the injection of 35 μL of 1 M ethanolamine, pH 8.0, at a flow rate of 5 μL/minute. As background to correct instrument and buffer artifacts, a reference was generated under the same conditions with omission of the protein ligand. Binding experiments were performed at 25° C. in HBS-EP buffer (0.01 M HEPES, 0.15M NaCl, 3 mM EDTA, 0.005% vol/vol surfactant P20 (GE Healthcare). Binding kinetics were measured by passing various concentrations of analyte (human sCD4 protein) over the chip surface at a flow rate of 30 μL/minute for 3 min. Dissociation of bound analytes was monitored while the surface was washed for 10 min. Remaining analytes were removed at a flow rate of 50 µL/minute with two 30-sec injections of 10 mM glycine-HCl, pH 2.0. For kinetics data analysis, the kinetic parameters were determined by collectively fitting the overlaid sensograms […] using the BIAevaluation 4.1 software to the 1:1 Langmuir binding model.
(§2) We next evaluated the kinetics of binding of these ibalizumab LMs to human soluble CD4 (sCD4) by surface plasmon resonance. In a Biacore assay using sCD4 as the analyte, WT ibalizumab and LMs bound sCD4 with similar binding kinetics.
In general terms: SPR reads the build-up and loss of mass on a sensor chip optically.

In test [2] the target is T1, recombinant sCD4 comprising the …. As to the kind of experiment: SPR (Biacore), sCD4 as analyte; member of the six by its KD in Table 1. How it is done:
as §1, §2

Numbering of substitutions follows the chain as printed. A value given as a limit tells only on which side of the number the result lay.

B1: LM30E, ibalizumab light chain mutant with an N-linked glycosylation site at position 30E (antibody, human IgG1, kappa, V domains shown)
VH: QVQLQQSGPEVVKPGASVKMSCKASGYTFTSYVIHWVRQKPGQGLDWIGYINPYNDGTDYDEKFKGKATLTSDTSTSTAYMELSSLRSEDTAVYYCAREKDNYATGAWFAYWGQGTLVTVSS
VL: DIVMTQSPDSLAVSLGERVTMNCKSSQSLLYSTNNATYLAWYQQKPGQSPKLLIYWASTRESGVPDRFSGSGSGTDFTLTISSVQAEDVAVYYCQQYYSYRTFGGGTKLEIKR
For the molecule B1, in test [1], the Kd (commonly the concentration at which binding is half-saturated) was found to be 1400 pM; the koff – broadly, the first-order rate constant of dissociation – turned out to be 0.00015 s⁻¹; the kon (in general, the second-order rate constant of association) was found to be 110000 M⁻¹ s⁻¹.

B2: LM67, ibalizumab light chain mutant with an N-linked glycosylation site at position 67 (antibody, human IgG1, kappa, V domains shown)
VH: B1 VH
VL: B1 VL with N35Q, A36K, T37N, S73N, G74A
Take B2: the “fold of KD against wild-type ibalizumab” value in test [2] was not above 2 fold. Besides, in test [1], the Kd was 800 pM, the koff stood at 0.0002 s⁻¹ and the kon was 250000 M⁻¹ s⁻¹.

B3: LM76, ibalizumab light chain mutant with an N-linked glycosylation site at position 76 (antibody, human IgG1, kappa, V domains shown)
VH: B1 VH
VL: B1 VL with N35Q, A36K, T37N, S82N, S83A, V84T
With B3, the “fold of KD against wild-type ibalizumab” value in test [2] was not above 2 fold. Further, in test [1], the Kd amounted to 280 pM, the koff stood at 0.00014 s⁻¹ and the kon was determined as 500000 M⁻¹ s⁻¹.

B4: LM65, ibalizumab light chain mutant with an N-linked glycosylation site at position 65 (antibody, human IgG1, kappa, V domains shown)
VH: B1 VH
VL: B1 VL with N35Q, A36K, T37N, S71N, G72A, S73T
In the case of B4, in test [1], the Kd stood at 1500 pM, the koff amounted to 0.00049 s⁻¹ and the kon is 330000 M⁻¹ s⁻¹.

B5: LM52, glycan-modified anti-CD4 IgG1 antibody with an N-linked glycan at light chain position 52 (antibody, V domains shown)
VH: B1 VH
VL: B1 VL with N35Q, A36K, T37N, S58N, T59S, R60T
Take B5: the “fold of KD against wild-type ibalizumab” value in test [2] was not above 2 fold. Also, in test [1], the Kd was found to be 350 pM, the koff came to 0.00016 s⁻¹ and the kon is 460000 M⁻¹ s⁻¹.

B6: LM54, ibalizumab light chain mutant with an N-linked glycosylation site at position 54 (antibody, human IgG1, kappa, V domains shown)
VH: B1 VH
VL: B1 VL with N35Q, A36K, T37N, R60N, E61A, S62T
Regarding B6, in test [2], the “fold of KD against wild-type ibalizumab” value was not above 2 fold. Besides, in test [1], the Kd was 730 pM, the koff was found to be 0.00027 s⁻¹ and the kon is 370000 M⁻¹ s⁻¹.

B7: LM53, ibalizumab light chain mutant with an N-linked glycosylation site at position 53 (antibody, human IgG1, kappa, V domains shown)
VH: B1 VH
VL: B1 VL with N35Q, A36K, T37N, T59N, R60A, E61T
As for B7, the “fold of KD against wild-type ibalizumab” value in test [2] was not above 2 fold. Also, in test [1], the Kd came to 450 pM, the off-rate constant (koff) was 0.00013 s⁻¹ and the kon is 290000 M⁻¹ s⁻¹.

B8: LM60, ibalizumab light chain mutant with an N-linked glycosylation site at position 60 (antibody, human IgG1, kappa, V domains shown)
VH: B1 VH
VL: B1 VL with N35Q, A36K, T37N, D66N, R67A, F68T
Regarding B8, the “fold of KD against wild-type ibalizumab” value in test [2] is not above 2 fold. Besides, in test [1], the Kd was found to be 190 pM, the koff is 8.3e-05 s⁻¹ and the kon was found to be 440000 M⁻¹ s⁻¹.
